The record followed here is PMC10853514, “Autoinhibition and activation of myosin VI revealed by its cryo-EM structure” (Nature Communications, 2024).

Assay [1] deals with T1, calmodulin (CaM), light chain of myosin VI (UniProt P0DP23 1-149).
T1 construct: calmodulin, the light chain of myosin VI; Two copies stand in the structure: CaM1 on Insert2 (with four Ca2+ ions) and CaM2 on the IQ motif; also called CaM1; CaM2; source: HEK293-F, co-transfected with myosin VI, co-purified
Kind of assay: cryo-EM structure; single-particle cryo-EM of myosin VI/CaM in PB, TB + AMPPNP and PB + ATP, the three datasets combined; autoinhibited state, 3.54 Å (4.14 Å map with the SAH-E). To be noted: both partners purified.

The target in assay [2] is T2, myosin VI motor domain (MD), aa 1-789 (human, UniProt Q9UM54-1 1-789).
T2 construct: myosin VI, human, motor domain aa 1-789; The methods say that myosin VI or its mutants were co-transfected with CaM; also called the MD; source: HEK293-F (pCAG vector), purified
Kind of assay: SEC; analytical SEC at 16 °C in PB (20 mM Na2HPO4/NaH2PO4 pH 7.4, 60 mM NaCl, 1 mM EGTA, 2 mM DTT, 2 mM MgCl2); 3.0 μM of the MD and CBD1 proteins. To be noted: both partners purified.

B1: human myosin VI heavy chain, full length, containing both the large-insertion (LI) and small-insertion (SI) regions (natural protein)
chain: MEDGKPVWAPHPTDGFQMGNIVDIGPDSLTIEPLNQKGKTFLALINQVFPAEEDSKKDVEDNCSLMYLNEATLLHNIKVRYSKDRIYTYVANILIAVNPYFDIPKIYSSEAIKSYQGKSLGTRPPHVFAIADKAFRDMKVLKMSQSIIVSGESGAGKTENTKFVLRYLTESYGTGQDIDDRIVEANPLLEAFGNAKTVRNNNSSRFGKFVEIHFNEKSSVVGGFVSHYLLEKSRICVQGKEERNYHIFYRLCAGASEDIREKLHLSSPDNFRYLNRGCTRYFANKETDKQILQNRKSPEYLKAGSMKDPLLDDHGDFIRMCTAMKKIGLDDEEKLDLFRVVAGVLHLGNIDFEEAGSTSGGCNLKNKSAQSLEYCAELLGLDQDDLRVSLTTRVMLTTAGGTKGTVIKVPLKVEQANNARDALAKTVYSHLFDHVVNRVNQCFPFETSSYFIGVLDIAGFEYFEHNSFEQFCINYCNEKLQQFFNERILKEEQELYQKEGLGVNEVHYVDNQDCIDLIEAKLVGILDILDEENRLPQPSDQHFTSAVHQKHKDHFRLTIPRKSKLAVHRNIRDDEGFIIRHFAGAVCYETTQFVEKNNDALHMSLESLICESRDKFIRELFESSTNNNKDTKQKAGKLSFISVGNKFKTQLNLLLDKLRSTGASFIRCIKPNLKMTSHHFEGAQILSQLQCSGMVSVLDLMQGGYPSRASFHELYNMYKKYMPDKLARLDPRLFCKALFKALGLNENDYKFGLTKVFFRPGKFAEFDQIMKSDPDHLAELVKRVNHWLTCSRWKKVQWCSLSVIKLKNKIKYRAEACIKMQKTIRMWLCKRRHKPRIDGLVKVGTLKKRLDKFNEVVSVLKDGKPEMNKQIKNLEISIDTLMAKIKSTMMTQEQIQKEYDALVKSSEELLSALQKKKQQEEEAERLRRIQEEMEKERKRREEDEKRRRKEEEERRMKLEMEAKRKQEEEERKKREDDEKRIQAEVEAQLARQKEEESQQQAVLEQERRDRELALRIAQSEAELISDEAQADLALRRNDGTRPKMTPEQMAKEMSEFLSRGPAVLATKAAAGTKKYDLSKWKYAELRDTINTSCDIELLAACREEFHRRLKVYHAWKSKNKKRNTETEQRAPKSVTDYDFAPFLNNSPQQNPAAQIPARQREIEMNRQQRFFRIPFIRPADQYKDPQSKKKGWWYAHFDGPWIARQMELHPDKPPILLVAGKDDMEMCELNLEETGLTRKRGAEILPRQFEEIWERCGGIQYLQNAIESRQARPTYATAMLQSLLK
notes: myosin VI, human, full length with both the alternatively spliced LI and SI regions; codon-optimised synthetic gene; also called the heavy chain; source: HEK293-F, co-transfected with CaM, purified (Flag resin, size exclusion)
With B1, the binding result in assay [1] is listed as “binds”.

B2: myosin VI cargo-binding domain 1 (CBD1), aa 1072-1158 (domain or fragment, human, UniProt Q9UM54-1 1072-1158, looked up)
chain: TKKYDLSKWKYAELRDTINTSCDIELLAACREEFHRRLKVYHAWKSKNKKRNTETEQRAPKSVTDYDFAPFLNNSPQQNPAAQIPAR
notes: myosin VI, human, CBD1 aa 1072-1158, numbers of the form with LI and SI; also called the CBD1; source: E. coli BL21(DE3), purified (Ni-NTA, size exclusion)
Regarding B2, the binding result in assay [2] is recorded as “binds”.
